Tests used:
[1] = molecular target: T1, thrombin (UniProt P00734;P00734 328-363;364-622); test: AFM imaging / C-AFM; monovalent anchoring; Na+ samples: 140 mM NaCl, 40 mM Tris-acetic acid, 1 mM EDTA, 12.5 mM MgCl2, 5 mM KCl; specificity tests 5 nM origami, 100 nM protein; imaging buffer, pH and tem
[2] = molecular target: T1, thrombin; test: AFM imaging; 5 nM origami, 100 nM thrombin; empty:filled cavities 25:0; Na+ samples: 140 mM NaCl, 40 mM Tris-acetic acid, 1 mM EDTA, 12.5 mM MgCl2, 5 mM KCl; specificity tests 5 nM origami, 100 nM protein; imaging buffer, pH and tem

B1: DNA origami with TBA15 only (20-TBA15) (mixed)
DNA: CATCTGACCTCTGTGCTGCTTTTTGGTTGGTGTGGTTGGTTTTTTCACGGTAGCACGCATAGG
modifications: 3'-C3-S-S-C3 on edge staples; none on aptamer strand
- binding result [1]: binds

B2: DNA origami with four SA aptamers (20-SAA1) (mixed)
DNA: TGAATCTAACGGTGCGTATCTTTTTCTGTGAGACGACGCACCGTCGCAGGTTTTGTCTCACAGTTTTGTACCTCGGAGACCAAGTAG
modifications: 3'-C3-S-S-C3 on edge staples (gold samples); none on aptamer strand
- binding result [2]: no binding

Reference: publication PMC12948236
